Measured values as given in article PMC11353242.

Legend:
Experiment in all cases: pull-down; GFP-CEP55 proteins (355 nM) bound to GFP-Trap Magnetic Agarose beads; taxol-polymerised MTs (545 nM tubulin), pH adapted to 7.5, incubated 1 h at 4 °C; 6 washes; bound MTs detected by Western blot against β tubulin; MTs bound to CEP55^FL set as 100%
[1] = molecular target: His-GFP-CEP55^59–428 (N- and C-termini deleted) (UniProt Q53EZ4)
[2] = molecular target: His-GFP-CEP55^59–464 (N-terminus, aa 1–58, deleted) (UniProt Q53EZ4)
[3] = molecular target: His-GFP-CEP55^1–428 (C-terminus, aa 429–464, deleted) (UniProt Q53EZ4)

percent reduction of MT binding against CEP55^FL [1]: 60%
percent reduction of MT binding against CEP55^FL [2]: 20%
percent reduction of MT binding against CEP55^FL [3]: 20%
Substance: Microtubules polymerised with taxol from tubulin prepared from porcine brain (from UniProt P02550 1-451; Q767L7 1-444) (complex)
